# Results from patent US10227388B2, “Peptides and combination of peptides for use in immunotherapy against non-small cell lung cancer and other cancers” (immatics biotechnologies GmbH, priority 2015, dated 2019).
# Target: HLA-A*02:01 (Homo sapiens, UniProt P04439, D140Y/D185E/D98H/E176V/E277Q/G131W/G231S/I119V/I121R/I166T/I218V/L300P/L318F/N151K/N90K/P208A/P217A/Q86G/Q94H/R138H/R169H/T345S)
# Assay: MHC binding assay (UV-ligand exchange, ELISA, peptide exchange yield)
# Conditions: binding of HLA-class I restricted peptides to HLA-A*02:01
# Summary of the method: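 Peptide–HLA-A*02:01 complexes made by UV-ligand exchange of a UV-cleavable peptide for the test peptide. Exchange yield measured by ELISA: 100-fold diluted monomers captured on streptavidin, 1 h at 37° C., detected with HRP anti-β2m and TMB, absorbance at 450 nm.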
row,"Peptide exchange (MHC class I binding score, peptide exchange yield)",Substance
1,″+++″ (≥50% = +++),315 (YLQDVVEQA; listed as Homo sapiens) [compound 315]
2,″+++″ (≥50% = +++),316 (ILLERLWYV; listed as Homo sapiens) [compound 316]
3,″+++″ (≥50% = +++),317 (SLAALVVHV; listed as Homo sapiens) [compound 317]
4,″++″ (≥20% = ++),318 (GLINTGVLSV; listed as Homo sapiens) [compound 318]
5,″++++″ (≥75% = ++++),320 (KMFEFVEPLL; listed as Homo sapiens) [compound 320]
6,″++++″ (≥75% = ++++),321 (GLFEDVTQPGILL; listed as Homo sapiens) [compound 321]
7,″+++″ (≥50% = +++),322 (TLMTSLPAL; listed as Homo sapiens) [compound 322]
8,″+++″ (≥50% = +++),324 (FLYDEIEAEV; listed as Homo sapiens) [compound 324]
9,″+++″ (≥50% = +++),325 (FIMPATVADATAV; listed as Homo sapiens) [compound 325]
10,″+++″ (≥50% = +++),326 (FLPEALDFV; listed as Homo sapiens) [compound 326]
11,″+++″ (≥50% = +++),327 (GLAPFTEGISFV; listed as Homo sapiens) [compound 327]
12,″+++″ (≥50% = +++),328 (ALNDQVFEI; listed as Homo sapiens) [compound 328]
13,″++++″ (≥75% = ++++),329 (FLVTLNNVEV; listed as Homo sapiens) [compound 329]
14,″+++″ (≥50% = +++),330 (QLALKVEGV; listed as Homo sapiens) [compound 330]
15,″+++″ (≥50% = +++),331 (KVDTVWVNV; listed as Homo sapiens) [compound 331]
16,″+++″ (≥50% = +++),332 (YLISELEAA; listed as Homo sapiens) [compound 332]
17,″++″ (≥20% = ++),333 (FLPDANSSV; listed as Homo sapiens) [compound 333]
18,″+++″ (≥50% = +++),334 (TLTKVLVAL; listed as Homo sapiens) [compound 334]
19,″+++″ (≥50% = +++),335 (YSLSSVVTV; listed as Homo sapiens) [compound 335]
20,″+++″ (≥50% = +++),336 (ILLTAIVQV; listed as Homo sapiens) [compound 336]
21,″++++″ (≥75% = ++++),337 (HLLSELEAAPYL; listed as Homo sapiens) [compound 337]
22,″++++″ (≥75% = ++++),339 (GLWEIENNPTVKA; listed as Homo sapiens) [compound 339]
23,″++++″ (≥75% = ++++),340 (ALLSMTFPL; listed as Homo sapiens) [compound 340]
24,″+++″ (≥50% = +++),341 (SQIALNEKLVNL; listed as Homo sapiens) [compound 341]
25,″+++″ (≥50% = +++),342 (HIYDKVMTV; listed as Homo sapiens) [compound 342]

# More lines, now with the values behind:
row,Substance,"Peptide exchange (MHC class I binding score, peptide exchange yield)"
1,267 (ALQDFLLSV; listed as Homo sapiens) [compound 267],″+++″ (≥50% = +++)
2,269 (RVLEVGALQAV; listed as Homo sapiens) [compound 269],″++″ (≥20% = ++)
3,270 (LLLDEEGTFSL; listed as Homo sapiens) [compound 270],″++″ (≥20% = ++)
4,271 (LVYPLELYPA; listed as Homo sapiens) [compound 271],″+++″ (≥50% = +++)
5,272 (ALGNTVPAV; listed as Homo sapiens) [compound 272],″+++″ (≥50% = +++)
6,273 (NLFQSVREV; listed as Homo sapiens) [compound 273],″++″ (≥20% = ++)
7,274 (SLLFSLFEA; listed as Homo sapiens) [compound 274],″++″ (≥20% = ++)
8,275 (YLVYILNEL; listed as Homo sapiens) [compound 275],″++″ (≥20% = ++)
9,276 (ALFTFSPLTV; listed as Homo sapiens) [compound 276],″+++″ (≥50% = +++)
10,277 (LLPPLESLATV; listed as Homo sapiens) [compound 277],″++″ (≥20% = ++)
11,278 (QLLDVVLTI; listed as Homo sapiens) [compound 278],″++″ (≥20% = ++)
12,279 (ALWGGTQPLL; listed as Homo sapiens) [compound 279],″++″ (≥20% = ++)
13,280 (VLPDPEVLEAV; listed as Homo sapiens) [compound 280],″+++″ (≥50% = +++)
14,281 (ILRESTEEL; listed as Homo sapiens) [compound 281],″+++″ (≥50% = +++)
15,282 (LLADVVPTT; listed as Homo sapiens) [compound 282],″+++″ (≥50% = +++)
16,284 (ILLSQTTGV; listed as Homo sapiens) [compound 284],″+++″ (≥50% = +++)
17,285 (QLLHVGVTV; listed as Homo sapiens) [compound 285],″+++″ (≥50% = +++)
18,286 (YLFPGIPEL; listed as Homo sapiens) [compound 286],″+++″ (≥50% = +++)
19,287 (FLNEFFLNV; listed as Homo sapiens) [compound 287],″+++″ (≥50% = +++)
20,288 (NLINEINGV; listed as Homo sapiens) [compound 288],″+++″ (≥50% = +++)
21,289 (VLLEIEDLQV; listed as Homo sapiens) [compound 289],″++++″ (≥75% = ++++)

row,Substance,"Peptide exchange (MHC class I binding score, peptide exchange yield)"
1,295 (VLDRESPNV; listed as Homo sapiens) [compound 295],″+++″ (≥50% = +++)
2,296 (FMEGAIIYV; listed as Homo sapiens) [compound 296],″+++″ (≥50% = +++)
3,297 (VLADIELAQA; listed as Homo sapiens) [compound 297],″+++″ (≥50% = +++)
4,298 (VMITKLVEV; listed as Homo sapiens) [compound 298],″+++″ (≥50% = +++)
5,299 (YLLETSGNL; listed as Homo sapiens) [compound 299],″+++″ (≥50% = +++)
6,300 (ALLGQTFSL; listed as Homo sapiens) [compound 300],″+++″ (≥50% = +++)
7,301 (FLVEDLVDSL; listed as Homo sapiens) [compound 301],″+++″ (≥50% = +++)
8,302 (ALLQEGEVYSA; listed as Homo sapiens) [compound 302],″+++″ (≥50% = +++)
9,303 (AILPQLFMV; listed as Homo sapiens) [compound 303],″++++″ (≥75% = ++++)
10,304 (MTLGQIYYL; listed as Homo sapiens) [compound 304],″+++″ (≥50% = +++)
11,305 (SIANFSEFYV; listed as Homo sapiens) [compound 305],″++++″ (≥75% = ++++)
12,306 (ALVNVQIPL; listed as Homo sapiens) [compound 306],″+++″ (≥50% = +++)
13,307 (ALPVSLPQI; listed as Homo sapiens) [compound 307],″+++″ (≥50% = +++)
14,308 (SQYSGQLHEV; listed as Homo sapiens) [compound 308],″+++″ (≥50% = +++)
15,309 (GLFDGVPTTA; listed as Homo sapiens) [compound 309],″+++″ (≥50% = +++)
16,310 (FLVDTPLARA; listed as Homo sapiens) [compound 310],″++++″ (≥75% = ++++)
17,311 (RLYTGMHTV; listed as Homo sapiens) [compound 311],″+++″ (≥50% = +++)
18,312 (IISDLTIAL; listed as Homo sapiens) [compound 312],″+++″ (≥50% = +++)
19,313 (VLFDDELLMV; listed as Homo sapiens) [compound 313],″+++″ (≥50% = +++)
20,314 (ALIAEGIALV; listed as Homo sapiens) [compound 314],″+++″ (≥50% = +++)
